Substitutions are numbered along the chain they refer to. Values joined by “and” are separate entries in the source; they are usually repeats but may differ in a detail not shown here. Identical values can stand only once.
B1: 36H1, 72A (protein, listed as Rattus norvegicus)
chain: AFDGTWKVDRNENYEKFMEKMGINVVKRKLGAHDNHKLTITQEGNKFTVKESSNFRNIDVVFELGVDFAYSAADGTELTGTWTMEGNKLVGKFKRVDNGKELIAVREISGNELIQTYTYEGVEAKRIFKKE
modifications: PEPTIDE (1)...(131) wild-type rat intestinal fatty acid binding protein
B2: 36R, 72A (protein, listed as Rattus norvegicus)
chain: B1 chain with H36R
modifications: PEPTIDE (1)...(131) wild-type rat intestinal fatty acid binding protein
B3: 36I1, 72A (protein, listed as Rattus norvegicus)
chain: B1 chain with H36I
modifications: PEPTIDE (1)...(131) wild-type rat intestinal fatty acid binding protein
B4: 38A2, 72A (protein, listed as Rattus norvegicus)
chain: B1 chain with H36L, L38A
modifications: PEPTIDE (1)...(131) wild-type rat intestinal fatty acid binding protein
B5: 102P, 72A (protein, listed as Rattus norvegicus)
chain: B1 chain with H36L, L102P
modifications: PEPTIDE (1)...(131) wild-type rat intestinal fatty acid binding protein
B6: 36M, 72A (protein, listed as Rattus norvegicus)
chain: B1 chain with H36M
modifications: PEPTIDE (1)...(131) wild-type rat intestinal fatty acid binding protein
B7: 36P, 72A (protein, listed as Rattus norvegicus)
chain: B1 chain with H36P
modifications: PEPTIDE (1)...(131) wild-type rat intestinal fatty acid binding protein
B8: 36K, 72A (protein, listed as Rattus norvegicus)
chain: B1 chain with H36K
modifications: PEPTIDE (1)...(131) wild-type rat intestinal fatty acid binding protein
B9: 38K1, 72A (protein, listed as Rattus norvegicus)
chain: B1 chain with H36L, L38K
modifications: PEPTIDE (1)...(131) wild-type rat intestinal fatty acid binding protein
B10: 38I3, 72A (protein, listed as Rattus norvegicus)
chain: B1 chain with H36L, L38I
modifications: PEPTIDE (1)...(131) wild-type rat intestinal fatty acid binding protein
B11: 38G1, 72A (protein, listed as Rattus norvegicus)
chain: B1 chain with H36L, L38G
modifications: PEPTIDE (1)...(131) wild-type rat intestinal fatty acid binding protein
B12: 38N1, 72A (protein, listed as Rattus norvegicus)
chain: B1 chain with H36L, L38N
modifications: PEPTIDE (1)...(131) wild-type rat intestinal fatty acid binding protein
B13: 36N, 72A (protein, listed as Rattus norvegicus)
chain: B1 chain with H36N
modifications: PEPTIDE (1)...(131) wild-type rat intestinal fatty acid binding protein
B14: 36Q, 72A (protein, listed as Rattus norvegicus)
chain: B1 chain with H36Q
modifications: PEPTIDE (1)...(131) wild-type rat intestinal fatty acid binding protein
B15: 38S1, 72A (protein, listed as Rattus norvegicus)
chain: B1 chain with H36L, L38S
modifications: PEPTIDE (1)...(131) wild-type rat intestinal fatty acid binding protein
B16: 102N, 72A (protein, listed as Rattus norvegicus)
chain: B1 chain with H36L, L102N
modifications: PEPTIDE (1)...(131) wild-type rat intestinal fatty acid binding protein
B17: 38E1, 72A (protein, listed as Rattus norvegicus)
chain: B1 chain with H36L, L38E
modifications: PEPTIDE (1)...(131) wild-type rat intestinal fatty acid binding protein
B18: 38F1, 72A (protein, listed as Rattus norvegicus)
chain: B1 chain with H36L, L38F
modifications: PEPTIDE (1)...(131) wild-type rat intestinal fatty acid binding protein
B19: 36S, 72A (protein, listed as Rattus norvegicus)
chain: B1 chain with H36S
modifications: PEPTIDE (1)...(131) wild-type rat intestinal fatty acid binding protein
B20: 36L, 72A wt (protein, listed as Rattus norvegicus)
chain: B1 chain with H36L
modifications: PEPTIDE (1)...(131) wild-type rat intestinal fatty acid binding protein
B21: 38H1, 72A (protein, listed as Rattus norvegicus)
chain: B1 chain with H36L, L38H
modifications: PEPTIDE (1)...(131) wild-type rat intestinal fatty acid binding protein
B22: 36Y, 72A (protein, listed as Rattus norvegicus)
chain: B1 chain with H36Y
modifications: PEPTIDE (1)...(131) wild-type rat intestinal fatty acid binding protein
B23: 38Q1, 72A (protein, listed as Rattus norvegicus)
chain: B1 chain with H36L, L38Q
modifications: PEPTIDE (1)...(131) wild-type rat intestinal fatty acid binding protein

Test: Probe fluorescence ratio response to linolenic acid relative to ADIFAB2
Type: binding
Conditions: response relative to ADIFAB2
Summary of the method: (§1)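 Fluorescently labeled rat intestinal FABP variants were read at two emission wavelengths, near the unbound maximum (about 420 to 480 nm) and the FFA-bound maximum (about 495 to 580 nm). R = Fλ1/Fλ2 after subtracting probe-free intensity; ΔR = R+agent − R0, normalized to ADIFAB2 (rI-FABP-L72A).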

| Molecule | DR/DR LNA |
| --- | --- |
| B1 | 0.86 |
| B2 | 1.17 |
| B3 | 1.13 |
| B4 | 1.30 |
| B5 | 0.56 |
| B6 | 1.08 |
| B7 | 0.36 |
| B8 | 0.42 |
| B9 | 0.86 |
| B10 | 1.21 |
| B11 | 1.07 |
| B12 | 1.14 |
| B13 | 0.42 |
| B14 | 1.28 and 0.880 |
| B15 | 1.37 |
| B16 | 0.71 |
| B17 | 0.29 |
| B18 | 0.96 |
| B19 | 0.50 |
| B20 | 1.00 |
| B21 | 1.19 |
| B22 | 0.68 |
| B23 | 1.87 |

Test: Probe fluorescence ratio response to arachidonic acid relative to ADIFAB2
Type: binding
Conditions: Arachidonic acid; response relative to ADIFAB2
Summary of the method: as §1

| Molecule | DR/DR AA |
| --- | --- |
| B9 | 0.83 |
| B10 | 1.18 |
| B11 | 1.03 |
| B12 | 1.08 |
| B15 | 1.28 |
| B21 | 1.24 |
| B23 | 1.87 |

Same assay, conditions: arachidonic acid; response relative to ADIFAB2

| Molecule | DR/DR AA |
| --- | --- |
| B1 | 0.76 |
| B2 | 1.04 |
| B3 | 1.01 |
| B4 | 1.23 |
| B5 | 0.50 |
| B6 | 1.23 |
| B7 | 0.32 |
| B8 | 0.38 |
| B13 | 0.47 |
| B14 | 1.20 and 0.837 |
| B16 | 0.64 |
| B17 | 0.57 |
| B18 | 0.91 |
| B19 | 0.49 |
| B20 | 1.25 |
| B22 | 0.68 |

Test: Probe fluorescence ratio response to oleic acid relative to ADIFAB2
Type: binding
Conditions: response relative to ADIFAB2
Summary of the method: as §1

| Molecule | DR/DR OA |
| --- | --- |
| B1 | 0.77 |
| B2 | 1.14 |
| B3 | 0.95 |
| B4 | 1.26 |
| B5 | 0.49 |
| B6 | 1.12 |
| B7 | 0.14 |
| B8 | 0.41 |
| B9 | 0.76 |
| B10 | 1.21 |
| B11 | 1.03 |
| B12 | 0.97 |
| B13 | 0.38 |
| B14 | 1.12 and 0.792 |
| B15 | 1.28 |
| B16 | 0.69 |
| B17 | 0.54 |
| B18 | 0.97 |
| B19 | 0.43 |
| B20 | 1.25 |
| B21 | 1.16 |
| B22 | 0.66 |
| B23 | 1.75 |

Test: Probe fluorescence ratio response to linoleic acid relative to ADIFAB2
Type: binding
Conditions: response relative to ADIFAB2
Summary of the method: as §1

| Molecule | DR/DR LA |
| --- | --- |
| B1 | 0.81 |
| B2 | 1.17 |
| B3 | 1.11 |
| B4 | 1.31 |
| B5 | 0.54 |
| B6 | 1.10 |
| B7 | −7.45 |
| B8 | 0.38 |
| B9 | 0.90 |
| B10 | 1.22 |
| B11 | 1.10 |
| B12 | 1.12 |
| B13 | 0.47 |
| B14 | 1.26 and 0.927 |
| B15 | 1.37 |
| B16 | 0.67 |
| B17 | 0.59 |
| B18 | 0.95 |
| B19 | 0.50 |
| B20 | 1.21 |
| B21 | 1.25 |
| B22 | 0.75 |
| B23 | 1.90 |

Test: Probe fluorescence ratio response to palmitic acid relative to ADIFAB2
Type: binding
Conditions: response relative to ADIFAB2
Summary of the method: as §1

| Molecule | DR/DR PA |
| --- | --- |
| B1 | 0.40 |
| B2 | 0.70 |
| B3 | 0.80 |
| B4 | 0.68 |
| B5 | 0.39 |
| B6 | 0.97 |
| B7 | 0.31 |
| B8 | 0.16 |
| B9 | 0.48 |
| B10 | 1.12 |
| B11 | 0.56 |
| B12 | 0.65 |
| B13 | 0.39 |
| B14 | 0.81 and 0.777 |
| B15 | 0.71 |
| B16 | −1.09 |
| B17 | 0.31 |
| B18 | 0.85 |
| B19 | 0.42 |
| B20 | 1.13 |
| B21 | 0.74 |
| B22 | 0.60 |
| B23 | 1.30 |

Source: patent US20060257938A1, “Method of screening for drugs that block ligand binding to a lipid binding protein” (priority 2005, published 2006)
